Biological target: His-p65 fusion protein (UniProt Q04206 1-551)
Assay: pull-down

Sequence of His-p65 fusion protein (Q04206 whole entry, the tested form may be a part): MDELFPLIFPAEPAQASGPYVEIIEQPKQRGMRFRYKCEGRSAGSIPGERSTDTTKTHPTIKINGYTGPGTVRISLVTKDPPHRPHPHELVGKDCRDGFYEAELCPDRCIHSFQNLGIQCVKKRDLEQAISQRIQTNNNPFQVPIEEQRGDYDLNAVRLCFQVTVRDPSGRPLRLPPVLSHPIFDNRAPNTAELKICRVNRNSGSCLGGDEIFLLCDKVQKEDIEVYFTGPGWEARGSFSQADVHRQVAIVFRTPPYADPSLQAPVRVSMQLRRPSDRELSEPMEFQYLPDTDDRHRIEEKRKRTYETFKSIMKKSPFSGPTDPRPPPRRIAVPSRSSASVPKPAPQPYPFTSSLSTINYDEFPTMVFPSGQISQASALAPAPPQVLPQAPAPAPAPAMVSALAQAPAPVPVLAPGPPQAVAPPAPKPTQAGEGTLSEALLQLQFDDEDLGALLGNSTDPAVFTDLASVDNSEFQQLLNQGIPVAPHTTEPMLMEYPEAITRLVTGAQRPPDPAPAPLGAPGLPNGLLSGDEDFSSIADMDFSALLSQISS

- binding result: binds
B1: GST-RhoE recombinant protein (natural protein, UniProt P61587 1-244, looked up)
chain: MKERRASQKLSSKSIMDPNQNVKCKIVVVGDSQCGKTALLHVFAKDCFPENYVPTVFENYTASFEIDTQRIELSLWDTSGSPYYDNVRPLSYPDSDAVLICFDISRPETLDSVLKKWKGEIQEFCPNTKMLLVGCKSDLRTDVSTLVELSNHRQTPVSYDQGANMAKQIGAATYIECSALQSENSVRDIFHVATLACVNKTNKNVKRNKSQRATKRISHMPSRPELSAVATDLRKDKAKSCTVM
